Experiment [1] has as its target T1, recombinant human PILRA (human, UniProt Q9UKJ1 20-197). The experiment is described as follows: SPR, Carterra LSA, antibody amine-coupled, kinetic fit. Here is the method:
(§1) Binding kinetics of human anti-PILRA-IgG4 antibodies were evaluated by surface plasmon resonance (SPR) using a Carterra LSA instrument (Carterra, Salt Lake City, UT). Antibodies were immobilized in duplicate arrays onto an HC30M sensor chip (Carterra) by amine coupling according to the manufacturer's protocol. After priming the immobilized antibodies with HBS-EP+ (Teknova, Hollister, CA, #8022) running buffer with 0.5 mg/mL BSA (MP Biomedicals LLC, #820451), the immobilized antibodies were tested for their ability to bind to recombinant human PILRA (SEQ ID NO:1) and cynomolgus PILRA (SEQ ID NO:120) and to human PILRB (SEQ ID NO:105) and cynomolgus PILRB (SEQ ID NO:121).
(§2) For binding kinetics analysis, human and cynomolgus PILRA and PILRB analytes were diluted in running buffer to 440 to 470 nM, and diluted 3-fold serially five times, to 1.8 to 1.9 nM, and injected for five minutes over the entire chip using the single channel flow cell to measure association of binding to the immobilized antibodies. Dissociation of the analytes was measured for five minutes, followed by regeneration of the chip with two 30-second injections of 10 mM glycine pH 2.0.
On the technique in general: In SPR one partner is held on a chip, and binding of the other changes the refractive index at the surface.

Experiment [2] deals with T2, recombinant cynomolgus PILRA (SEQ ID NO:120) (cynomolgus monkey).
T2 construct: also called cyno PILRA
The experiment is described as above. Here is the method: as §1, §2

Experiment [3] has as its target T3, human PILRA G78 on HEK293F cells (human, UniProt Q9UKJ1 20-303).
T3 construct: also called hA; G78 OE
The experiment is described as follows: flow cytometry; HEK293F cells overexpressing human PILRA, goat anti-human IgG Alexa Fluor 647. On the procedure: (§3) Conditioned media samples containing the tested anti-PILRA antibodies were assessed for binding to HEK293F cells overexpressing human PILRA (hA), human PILRB (hB), and cynomolgus PILRA (cA) by FACS. The conditioned media containing the tested antibodies were incubated with the cells for 30 min at 4° C., washed twice, and then detected with goat anti-human IgG secondary antibody (Alexa Fluor 647) at 1:1000 dilution. The cells were analyzed by flow cytometry on FACS Canto II, and for all cell lines, the reported MFI values were calculated for each conditioned media. These antibodies were evaluated for nonspecific binding using a baculovirus particle (BVP) assay (Jain T., Sun T., Durand S., Hall A., Houston N. R., Nett J. H., Sharkey B., Bobrowicz B., Caffry L, Yu Y., et al. Biophysical properties of the clinical-stage antibody landscape. Proc. Natl. Acad. Sci. USA. 2017; 114:944-949. Doi: 10.1073/pnas.1616408114.). The BVP scores are listed in Table 9, and the higher the score the more nonspecific binding that occurred.
For orientation: In flow cytometry, cells or beads pass a laser one at a time.

Experiment [4] addresses T1, recombinant human PILRA. The experiment is described as follows: SPR, Biacore T200, antibody captured by anti-Fab. On the procedure: (§4) A subset of these antibodies was further evaluated using the Biacore T200 (Cytiva). Anti-PILRA antibodies were diluted to 10 μg/mL and captured using an anti-Fab (Cytiva, #28958325) surface on a CM4 chip, that was prepared by amine coupling according to the manufacturer's protocol. Human PILRA and cynomolgus PILRB were diluted in running buffer to 130 nM, and diluted 4-fold serially, twice, to 8 nM. Human PILRB was similarly diluted from 260 nM to 16 nM. These analytes were injected and allowed 2 minutes of association, followed by dissociation for 5 minutes.
(§5) Data were analyzed using Biacore evaluation software to generate kinetic constants. The equilibrium dissociation constants (KD) were calculated from the fitted association and dissociation rate constants (k-on and k-off) for each of the anti-PILRA antibodies. These Kn values are indicated with asterisks in Table 8 below.

For experiment [5], the target named is cynomolgus PILRA on HEK293F cells (cynomolgus monkey, UniProt A0A7N9CRU1 20-292). The experiment is described as follows: cA Kd of Table 9; method not stated (Example 8: HEK293F overexpressing cells, FACS).
The target of experiment [6] is T3, human PILRA G78 on HEK293F cells. Briefly: hA Kd of Table 9; method not stated (Example 8: HEK293F overexpressing cells, FACS).
For experiment [7] the target is unchanged. Briefly: FACS on HEK293F cells, binding on human PILRA (hA) over human PILRB (hB). On the procedure: as §3
The target in experiment [8] is T4, recombinant human PILRB (human, UniProt Q9UKJ0 20-191). Briefly: SPR, Carterra LSA, steady-state fit. Here is the method: as §1, §2
For the human PILRB interactions, the binding was too weak and heterogenous for kinetic constants to be calculated in this assay. Therefore, steady-state affinities were estimated based on the binding level of each analyte concentration at the end of the injections.

Experiment [9] has as its target T5, cell surface PILRA on human monocytes (human, UniProt Q9UKJ1 20-303). Briefly: cell-based or functional assay.
In experiment [10] the target is T3, human PILRA G78 on HEK293F cells. Briefly: flow cytometry blocking assay; antibody on HEK293F cells overexpressing human PILRA G78, then 5 ug/mL NPDC1 Fc as the blocked ligand; cell-bound NPDC1 Fc read as MFI. Here is the method:
A dose response curve of antibodies X0 (PA-29), X1, X2, X7, X11, X12, X13, X14, X16, X18, and X20 was assessed for modulating the binding of Neural Proliferation Differentiation and Control Protein 1 (NPDC1) Fc to 293 cells ectopically expressing human PILRA (HEK293F human PILRA G78 overexpressing cells). Conditioned media samples containing antibodies were incubated with human PILRA overexpressing cells for 30 minutes at 4° C., and then 5 μg/mL NPDC1 Fc was added to this mixture. After 30 minutes of incubation at 4° C., the cells were washed and cell-bound NPDC1 Fc was detected with anti-human IgG Alexa Fluor 647. The cells were analyzed by flow cytometry on FACS Canto II with the percentage of NPDC1 Fc binding in the presence of conditioned media relative to NPDC1 Fc binding alone was calculated. […] All tested antibodies decreased binding of NPDC1 to human PILRA.

The target of experiment [11] is T5, cell surface PILRA on human monocytes. Briefly: flow cytometry; Alexa Fluor 647-conjugated antibody on human CD14+ monocytes, Fc receptors blocked, 30 min on ice. Here is the method:
(§6) Anti-human PILRA antibodies X0 (PA-29) and its affinity matured variants were tested for their abilities to bind cell surface PILRA on human and cynomolgus monocytes. CD14+ monocytes were isolated from healthy human donors using a RosetteSep Human Monocyte Enrichment Cocktail kit (StemCell). Cynomolgus white blood cells were collected from cynomolgus whole blood. In both human and cynomolgus samples, the Fc receptor on the tested monocytes was blocked and the monocytes were treated with Alexa Fluor 647-conjugated PILRA antibodies for 30 minutes on ice. A dose response curve of antibodies X0 (PA-29), X1, X2, X7, X11, X12, X13, X14, X16, X18, and X20 was tested for binding to cell surface PILRA in human and cynomolgus monocytes, and antibodies bound to PILRA in a dose response manner. In another sample of human donor monocytes, a dose response curve of antibodies X0 (PA-29), X1, X2, X11, X13, X18, X29 (PA-43), and X34 (A6) was tested for binding to cell surface PILRA in human and cynomolgus monocytes, and antibodies bound to PILRA in a dose response manner.

Experiment [12] addresses T6, human PILRB on HEK293F cells (human, UniProt Q9UKJ0 20-227).
T6 construct: also called hB
The experiment is described as follows: hB Kd of Table 9; method not stated (Example 8: HEK293F overexpressing cells, FACS).

In experiment [13] the target is T5, cell surface PILRA on human monocytes. Briefly: flow cytometry; Alexa Fluor 647-conjugated antibody on human CD14+ monocytes (second donor sample), Fc receptors blocked, 30 min on ice. Here is the method: as §6
Experiment [14] has as its target T4, recombinant human PILRB. Briefly: SPR, Biacore T200, antibody captured by anti-Fab. Here is the method:
as §4, §5

Numbering of substitutions follows the chain as printed.

These results are taken from US20260070976A1 (Alector, published 2026).

T2 sequence (chain, as listed by the source limits assumed): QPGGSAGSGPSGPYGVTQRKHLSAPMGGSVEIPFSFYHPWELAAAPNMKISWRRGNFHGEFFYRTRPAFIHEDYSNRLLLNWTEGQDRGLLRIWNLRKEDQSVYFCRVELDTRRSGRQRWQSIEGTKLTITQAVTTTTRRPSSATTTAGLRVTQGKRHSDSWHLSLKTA
T5 sequence (Q9UKJ1 20-303): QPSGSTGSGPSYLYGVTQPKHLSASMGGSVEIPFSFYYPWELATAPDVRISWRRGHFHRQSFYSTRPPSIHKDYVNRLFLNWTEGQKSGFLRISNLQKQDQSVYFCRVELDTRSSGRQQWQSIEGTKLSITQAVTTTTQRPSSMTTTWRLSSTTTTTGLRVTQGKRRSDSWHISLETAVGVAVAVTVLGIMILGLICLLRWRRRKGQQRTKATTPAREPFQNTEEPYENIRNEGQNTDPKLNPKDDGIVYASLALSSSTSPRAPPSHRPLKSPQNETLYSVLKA
T4 sequence (Q9UKJ0 20-191 limits assumed): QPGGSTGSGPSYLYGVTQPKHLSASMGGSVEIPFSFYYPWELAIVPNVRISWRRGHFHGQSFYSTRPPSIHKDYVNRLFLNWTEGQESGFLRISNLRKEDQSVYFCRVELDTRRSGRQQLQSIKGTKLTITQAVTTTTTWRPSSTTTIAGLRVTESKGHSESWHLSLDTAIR
T6 sequence (Q9UKJ0 20-227): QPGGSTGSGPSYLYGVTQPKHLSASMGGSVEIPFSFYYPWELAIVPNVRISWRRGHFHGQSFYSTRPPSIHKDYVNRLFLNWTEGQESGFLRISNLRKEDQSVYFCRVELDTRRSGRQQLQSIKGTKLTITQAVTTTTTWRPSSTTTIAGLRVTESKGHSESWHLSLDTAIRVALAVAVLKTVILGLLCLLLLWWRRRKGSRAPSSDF
T1 sequence (Q9UKJ1 20-197 limits assumed): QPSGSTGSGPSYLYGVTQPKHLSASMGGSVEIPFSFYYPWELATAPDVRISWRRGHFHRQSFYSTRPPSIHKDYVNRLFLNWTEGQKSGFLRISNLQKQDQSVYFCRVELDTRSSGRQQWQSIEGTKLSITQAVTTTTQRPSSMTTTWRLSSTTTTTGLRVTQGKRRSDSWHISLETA
T3 sequence (Q9UKJ1 20-303 R78G): as the sequence (Q9UKJ1 20-303) above, with R59G counted along it
cynomolgus PILRA on HEK293F cells, sequence (A0A7N9CRU1 entry or part of it): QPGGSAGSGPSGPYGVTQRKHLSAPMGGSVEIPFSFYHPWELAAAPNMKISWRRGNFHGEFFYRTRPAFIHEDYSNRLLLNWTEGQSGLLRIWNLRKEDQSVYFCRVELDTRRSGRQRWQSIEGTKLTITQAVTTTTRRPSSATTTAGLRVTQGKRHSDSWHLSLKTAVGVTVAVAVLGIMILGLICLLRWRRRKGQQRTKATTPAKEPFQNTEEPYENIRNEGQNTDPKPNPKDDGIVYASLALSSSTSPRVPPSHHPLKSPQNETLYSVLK

B1: X0 (PA-29) (antibody, V domains shown)
VH: QVQLVQSGAEVKKPGSSVKVSCKASGYNFLNYDVNWVRQAPGQGLEWMGGIIPIFGTANYAQKFQGRVTITADESTSTAYMELSSLRSEDTAVYYCATGVGAGWFDPWGQGTLVTVSS
VL: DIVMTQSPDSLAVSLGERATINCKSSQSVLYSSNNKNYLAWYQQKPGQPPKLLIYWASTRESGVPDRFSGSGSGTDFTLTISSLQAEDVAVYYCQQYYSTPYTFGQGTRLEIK
notes: conditioned media in the HEK293F assays; also called parental X0 (PA-29) antibody; XO (PA-29)
What is called Kd is the concentration at which binding is half-saturated. For orientation: EC50 (read off the curve) means the concentration needed to bring the measured effect to its halfway point. Read a high EC50 (read off the curve) as a less potent agent. Consider B1, for which the Kd with recombinant human PILRA [1] stood at 233 nM; in experiment [2], 17 nM; with recombinant human PILRA [4] it was 294 nM; in experiment [5], 192 nM; in experiment [6], 78.7 nM. In [3], the 50% effective concentration (EC50 (read off the curve)) was around 0.3 µg/mL. In experiment [7], the “hA/hB binding ratio on HEK293F” value came out at 108. For the same molecule, in the experiment with recombinant human PILRB [8], the binding result is given as “no binding”. Further, in experiment [9], the “Hu Mono DR EC50” value turned out to be 0.7 µg/mL.

B2: X7 (antibody, human IgG4, V domains shown)
VH: B1 VH
VL: DIVMTQSPDSLAVSLGERATINCKSSQSVFFDENNKNYLAWYQQKPGQPPKLLIYWASTRESGVPDRFSGSGSGTDFTLTISSLQAEDVAVYYCQQYFEEPYTFGQGTRLEIK
notes: conditioned media in the HEK293F assays
B2: the Kd was found to be 3.8 nM with recombinant human PILRA [1]; 0.4 nM in experiment [2]; 2 nM in [5]; 1.2 nM in experiment [6]; 77 nM with recombinant human PILRB [8]. In addition, the “IC50 (read off the curve)” value in experiment [10] was around 0.08 µg/mL. The “hA/hB binding ratio on HEK293F” value in experiment [7] amounted to 63. Also, the “EC50 (read off the curve)” value in experiment [11] is around 0.2 µg/mL. For the same molecule, in experiment [9], the “Hu Mono DR EC50” value is 0.9 µg/mL.

B3: X18 (antibody, human IgG4, V domains shown)
VH: B1 VH with N31H, G99A, P107T
VL: B2 VL with F30W, E33P
notes: as for B2
For B3, the dissociation constant (Kd) in experiment [12] is 3.4 nM; with recombinant human PILRA [1], 1.3 nM; in experiment [2] it was 0.2 nM; in experiment [5] it was 0.2 nM; in experiment [6], 0.1 nM; in the experiment with recombinant human PILRB [8], 4 nM. Also, the entries for the “EC50 (read off the curve)” value in experiment [13] and in experiment [3] were around 0.1 µg/mL and around 0.5 µg/mL, respectively. Moreover, the “hA/hB binding ratio on HEK293F” value in experiment [7] is 6.5. The “Hu Mono DR EC50” value in experiment [9] is around 0.02 µg/mL.

B4: X14 (antibody, human IgG4, V domains shown)
VH: B1 VH with N31H, G99A, P107T
VL: B2 VL with F30Y, D32S, E33P
notes: as for B2
In the case of B4, the Kd in [12] was determined as 6.6 nM; with recombinant human PILRA [1] it was 1.1 nM; in experiment [2], 0.1 nM; in experiment [5] it was 0.3 nM; in experiment [6], 0.1 nM; with recombinant human PILRB [8], 4 nM. For the same molecule, the “IC50 (read off the curve)” value in experiment [10] was around 0.02 µg/mL. In addition, the “hA/hB binding ratio on HEK293F” value in experiment [7] was 7.9. Besides, in experiment [11], the “EC50 (read off the curve)” value is around 0.1 µg/mL. The “Hu Mono DR EC50” value in [9] is around 0.02 µg/mL.

B5: X1 (antibody, V domains shown)
VH: B1 VH with N31H, G99A, P107T
VL: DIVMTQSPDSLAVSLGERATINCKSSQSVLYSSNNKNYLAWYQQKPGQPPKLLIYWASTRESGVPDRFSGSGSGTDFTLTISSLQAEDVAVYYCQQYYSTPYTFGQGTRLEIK
notes: as for B2
B5: the dissociation constant (Kd) in experiment [12] was 126 nM; in the experiment with recombinant human PILRA [1] it was 2.5 nM; in experiment [2], 1.6 nM; with recombinant human PILRA [4], 1.6 nM; with recombinant human PILRB [14], 128 nM; in [5], 5.3 nM. Further, the Kd was 0.4 nM in experiment [6] and 39 nM in the experiment with recombinant human PILRB [8]. For the same molecule, the “EC50 (read off the curve)” value in experiment [13] was around 0.1 µg/mL; in experiment [3], around 0.3 µg/mL; in experiment [11] it was around 0.2 µg/mL. In addition, the “IC50 (read off the curve)” value in [10] is around 0.07 µg/mL. For the same molecule, the “hA/hB binding ratio on HEK293F” value in experiment [7] was determined as 56.7. For the same molecule, in experiment [9], the “Hu Mono DR EC50” value was determined as 0.02 µg/mL.

B6: X12 (antibody, human IgG4, V domains shown)
VH: B1 VH with N31H, G99A, P107T
VL: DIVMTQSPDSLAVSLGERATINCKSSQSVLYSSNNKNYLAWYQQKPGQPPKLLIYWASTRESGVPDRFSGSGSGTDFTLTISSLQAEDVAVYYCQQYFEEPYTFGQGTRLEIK
notes: as for B2
B6: the dissociation constant Kd in experiment [12] is 36.7 nM; in the experiment with recombinant human PILRA [1], 1 nM; in experiment [2], 0.2 nM; in the experiment with recombinant human PILRA [4] it was 0.3 nM; with recombinant human PILRB [14] it was 28 nM; in experiment [5], 0.3 nM. The Kd came to 0.1 nM in experiment [6] and 12 nM with recombinant human PILRB [8]. Further, the “IC50 (read off the curve)” value in experiment [10] is around 0.08 µg/mL. Also, the “hA/hB binding ratio on HEK293F” value in [7] is 14.4. In addition, the “EC50 (read off the curve)” value in experiment [11] was around 0.1 µg/mL. The “Hu Mono DR EC50” value in [9] was around 0.02 µg/mL.
